Target: T1, T. vaginalis cyclophilin 2 (TvCyP2), recombinant with C-terminal His-tag (Trichomonas vaginalis, UniProt A2DLL4 1-186)
T1 construct: TvCyP2 cyclophilin of Trichomonas vaginalis, with its N-terminal segment; secondary structure is described up to residue 184; theoretical molecular weight 20.947 kDa; 15N-labelled for the NMR experiments; Cloned into pET-29b by NdeI and XhoI; also called TvCyP2_apo1; TvCyP2_apo2; source: E. coli BL21(DE3), purified (Q-sepharose flow-through, Ni-NTA; SEC superdex-75 for crystallization and …)
Experiment: NMR titration; 2D 1H-15N HSQC of the 15N-labelled protein without and with unlabelled TvCyP2(3-18) peptide (molar ratio 1:5); 800 MHz, 310 K; 20 mM NaH2PO4, 50 mM NaCl, pH 6.0, 10% D2O
Conditions: both partners purified

B1: TvCyP2_(3–18) peptide (peptide)
peptide: AFFATRVISAPKVTKK
notes: residues 3-18 of TvCyP2 of Trichomonas vaginalis (N-terminal segment); source: synthetic peptide, HPLC-grade, bought: Yao-Hong Biotechnology
  binding result: binds

— publication PMC7563477, “N-Terminal Segment of TvCyP2 Cyclophilin from Trichomonas vaginalis Is Involved in Self-Association, Membrane Interaction, and Subcellular Localization” (Biomolecules, 2020)
